Results taken from the supplement of paper PMC9233669.
This sample holds only a part of the variants without activity.

Assays:
biotinyl-Leu-oxazolone = experiment: self-aminoacylation, catalytic enhancement (BLO) (fold over background); higher = more active; k-Seq, kA / k0A0; sequences stand for … in GGGAAUGGAUCCACAUCUACGAAUUC…UUCACUGCAGACUUGACGAAGCUG
In short: (§1)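 Mutagenized RNA pools with a 21-nt variable region (0.43 μM) were reacted with each biotinyl-aminoacyl-oxazolone at 2–1250 μM for 90 minutes at room temperature, in 50 μL HEPES/NaCl/KCl/MgCl2/CaCl2 buffer containing 5% acetonitrile at pH 6.9–7.0. RNA captured on streptavidin was quantified by triplicate qPCR and by Illumina sequencing. The fraction reacted for each sequence was fit to a pseudo-first-order model with bootstrapping, and catalytic enhancement is the median kA divided by the uncatalyzed rate, taken as the low-activity peak of a bimodal Gaussian fit.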

biotinyl-Val-oxazolone = experiment: self-aminoacylation, catalytic enhancement (BVO) (fold over background); higher = more active; k-Seq, kA / k0A0; sequences stand for … in GGGAAUGGAUCCACAUCUACGAAUUC…UUCACUGCAGACUUGACGAAGCUG
In short: as §1

biotinyl-Ile-oxazolone = experiment: self-aminoacylation, catalytic enhancement (BIO) (fold over background); higher = more active; k-Seq, kA / k0A0; sequences stand for … in GGGAAUGGAUCCACAUCUACGAAUUC…UUCACUGCAGACUUGACGAAGCUG
In short: as §1

biotinyl-Phe-oxazolone = experiment: self-aminoacylation, catalytic enhancement (BFO) (fold over background); higher = more active; k-Seq, kA / k0A0; sequences stand for … in GGGAAUGGAUCCACAUCUACGAAUUC…UUCACUGCAGACUUGACGAAGCUG
In short: as §1

biotinyl-Trp-oxazolone = experiment: self-aminoacylation, catalytic enhancement (BWO) (fold over background); higher = more active; k-Seq, kA / k0A0; sequences stand for … in GGGAAUGGAUCCACAUCUACGAAUUC…UUCACUGCAGACUUGACGAAGCUG
In short: as §1

biotinyl-Met-oxazolone = experiment: self-aminoacylation, catalytic enhancement (BMO) (fold over background); higher = more active; k-Seq, kA / k0A0; sequences stand for … in GGGAAUGGAUCCACAUCUACGAAUUC…UUCACUGCAGACUUGACGAAGCUG
In short: as §1

## AUUCACAUCGGUCAUCGGGUG [Fam2.2 aminoacylation ribozyme variant]
biotinyl-Leu-oxazolone
  self-aminoacylation: 9.09
biotinyl-Val-oxazolone
  self-aminoacylation: 4.81
biotinyl-Ile-oxazolone
  self-aminoacylation: 4.36
biotinyl-Phe-oxazolone
  self-aminoacylation: 57.5
biotinyl-Trp-oxazolone
  self-aminoacylation: 5.93
biotinyl-Met-oxazolone
  self-aminoacylation: 8.09

## AUUCACCAAGCUCAUCGGGUG [Fam2.2 aminoacylation ribozyme variant]
biotinyl-Leu-oxazolone
  self-aminoacylation: 2.92
biotinyl-Val-oxazolone
  self-aminoacylation: 2.92
biotinyl-Ile-oxazolone
  self-aminoacylation: 2.4
biotinyl-Phe-oxazolone
  self-aminoacylation: 9.43
biotinyl-Trp-oxazolone
  self-aminoacylation: 1.79
biotinyl-Met-oxazolone
  self-aminoacylation: 2.13

## AUUCACCAAGGACAUCGGGUG [Fam2.2 aminoacylation ribozyme variant]
biotinyl-Leu-oxazolone
  self-aminoacylation: 4.96
biotinyl-Val-oxazolone
  self-aminoacylation: 3.27
biotinyl-Ile-oxazolone
  self-aminoacylation: 3.2
biotinyl-Phe-oxazolone
  self-aminoacylation: 30
biotinyl-Trp-oxazolone
  self-aminoacylation: 4.17
biotinyl-Met-oxazolone
  self-aminoacylation: 4.65

## AUUCACCAAGGUCAUCCGGUG [Fam2.2 aminoacylation ribozyme variant]
biotinyl-Leu-oxazolone
  self-aminoacylation: 11.4
biotinyl-Val-oxazolone
  self-aminoacylation: 4.96
biotinyl-Ile-oxazolone
  self-aminoacylation: 5.51
biotinyl-Phe-oxazolone
  self-aminoacylation: 59.6
biotinyl-Trp-oxazolone
  self-aminoacylation: 7.89
biotinyl-Met-oxazolone
  self-aminoacylation: 7.8

## AUUCACCAAGGUCAUCGCGUG [Fam2.2 aminoacylation ribozyme variant]
biotinyl-Leu-oxazolone
  self-aminoacylation: 20.7
biotinyl-Val-oxazolone
  self-aminoacylation: 8.42
biotinyl-Ile-oxazolone
  self-aminoacylation: 7.86
biotinyl-Phe-oxazolone
  self-aminoacylation: 132
biotinyl-Trp-oxazolone
  self-aminoacylation: 12.6
biotinyl-Met-oxazolone
  self-aminoacylation: 16

## AUUCACCAAGGUCAUCGGCUG [Fam2.2 aminoacylation ribozyme variant]
biotinyl-Leu-oxazolone
  self-aminoacylation: 2.66
biotinyl-Val-oxazolone
  self-aminoacylation: 1.92
biotinyl-Ile-oxazolone
  self-aminoacylation: 2.06
biotinyl-Phe-oxazolone
  self-aminoacylation: 8.8
biotinyl-Trp-oxazolone
  self-aminoacylation: 1.78
biotinyl-Met-oxazolone
  self-aminoacylation: 2.21

## AUUCACCAAGGUCAUCGGGUA [Fam2.2 aminoacylation ribozyme variant]
biotinyl-Leu-oxazolone
  self-aminoacylation: 3.23
biotinyl-Val-oxazolone
  self-aminoacylation: 3.04
biotinyl-Ile-oxazolone
  self-aminoacylation: 3.77
biotinyl-Phe-oxazolone
  self-aminoacylation: 22.5
biotinyl-Trp-oxazolone
  self-aminoacylation: 4.89
biotinyl-Met-oxazolone
  self-aminoacylation: 2.43

## AUUCACCAAGGUCAUGGGGUG [Fam2.2 aminoacylation ribozyme variant]
biotinyl-Leu-oxazolone
  self-aminoacylation: 12.7
biotinyl-Val-oxazolone
  self-aminoacylation: 5.88
biotinyl-Ile-oxazolone
  self-aminoacylation: 6.16
biotinyl-Phe-oxazolone
  self-aminoacylation: 77.3
biotinyl-Trp-oxazolone
  self-aminoacylation: 8.64
biotinyl-Met-oxazolone
  self-aminoacylation: 9.1

## AUUCACCAAGGUCGUCGGGUG [Fam2.2 aminoacylation ribozyme variant]
biotinyl-Leu-oxazolone
  self-aminoacylation: 3.05
biotinyl-Val-oxazolone
  self-aminoacylation: 2.58
biotinyl-Ile-oxazolone
  self-aminoacylation: 2.09
biotinyl-Phe-oxazolone
  self-aminoacylation: 12.9
biotinyl-Trp-oxazolone
  self-aminoacylation: 2.29
biotinyl-Met-oxazolone
  self-aminoacylation: 2.2

## AUUCACCCAAGUCAUCGGGUG [Fam2.2 aminoacylation ribozyme variant]
biotinyl-Leu-oxazolone
  self-aminoacylation: 14.8
biotinyl-Val-oxazolone
  self-aminoacylation: 5.86
biotinyl-Ile-oxazolone
  self-aminoacylation: 5.59
biotinyl-Phe-oxazolone
  self-aminoacylation: 92.9
biotinyl-Trp-oxazolone
  self-aminoacylation: 10.1
biotinyl-Met-oxazolone
  self-aminoacylation: 11

## AUUCACCCAGAUCAUCGGGUG [Fam2.2 aminoacylation ribozyme variant]
biotinyl-Leu-oxazolone
  self-aminoacylation: 2.43
biotinyl-Val-oxazolone
  self-aminoacylation: 2.26
biotinyl-Ile-oxazolone
  self-aminoacylation: 1.85
biotinyl-Phe-oxazolone
  self-aminoacylation: 7.26
biotinyl-Trp-oxazolone
  self-aminoacylation: 1.84
biotinyl-Met-oxazolone
  self-aminoacylation: 1.82

## AUUCACCCAGGCCAUCGGGUG [Fam2.2 aminoacylation ribozyme variant]
biotinyl-Leu-oxazolone
  self-aminoacylation: 6.14
biotinyl-Val-oxazolone
  self-aminoacylation: 3.7
biotinyl-Ile-oxazolone
  self-aminoacylation: 3.35
biotinyl-Phe-oxazolone
  self-aminoacylation: 34.1
biotinyl-Trp-oxazolone
  self-aminoacylation: 5.24
biotinyl-Met-oxazolone
  self-aminoacylation: 3.79

## AUUCACCCAGGUCACCGGGUG [Fam2.2 aminoacylation ribozyme variant]
biotinyl-Leu-oxazolone
  self-aminoacylation: 5.75
biotinyl-Val-oxazolone
  self-aminoacylation: 3.77
biotinyl-Ile-oxazolone
  self-aminoacylation: 3.47
biotinyl-Phe-oxazolone
  self-aminoacylation: 39.4
biotinyl-Trp-oxazolone
  self-aminoacylation: 4.89
biotinyl-Met-oxazolone
  self-aminoacylation: 5.66

## AUUCACCCAGGUCAGCGGGUG [Fam2.2 aminoacylation ribozyme variant]
biotinyl-Leu-oxazolone
  self-aminoacylation: 5.61
biotinyl-Val-oxazolone
  self-aminoacylation: 2.73
biotinyl-Ile-oxazolone
  self-aminoacylation: 2.93
biotinyl-Phe-oxazolone
  self-aminoacylation: 18.4
biotinyl-Trp-oxazolone
  self-aminoacylation: 4.34
biotinyl-Met-oxazolone
  self-aminoacylation: 3.76

## AUUCACCCAGGUCAUCGGGCG [Fam2.2 aminoacylation ribozyme variant]
biotinyl-Leu-oxazolone
  self-aminoacylation: 4.5
biotinyl-Val-oxazolone
  self-aminoacylation: 2.62
biotinyl-Ile-oxazolone
  self-aminoacylation: 2.72
biotinyl-Phe-oxazolone
  self-aminoacylation: 18
biotinyl-Trp-oxazolone
  self-aminoacylation: 2.97
biotinyl-Met-oxazolone
  self-aminoacylation: 3.77

## AUUCACCCAGGUCAUCGGGUC [Fam2.2 aminoacylation ribozyme variant]
biotinyl-Leu-oxazolone
  self-aminoacylation: 1.92
biotinyl-Val-oxazolone
  self-aminoacylation: 1.88
biotinyl-Ile-oxazolone
  self-aminoacylation: 1.14
biotinyl-Phe-oxazolone
  self-aminoacylation: 6.42
biotinyl-Trp-oxazolone
  self-aminoacylation: 1.39
biotinyl-Met-oxazolone
  self-aminoacylation: 1.5

## AUUCACCCAGGUCAUUGGGUG [Fam2.2 aminoacylation ribozyme variant]
biotinyl-Leu-oxazolone
  self-aminoacylation: 4.11
biotinyl-Val-oxazolone
  self-aminoacylation: 2.52
biotinyl-Ile-oxazolone
  self-aminoacylation: 2.31
biotinyl-Phe-oxazolone
  self-aminoacylation: 23.8
biotinyl-Trp-oxazolone
  self-aminoacylation: 3.71
biotinyl-Met-oxazolone
  self-aminoacylation: 3.36

## AUUCACCCAGGUCCUCGGGUG [Fam2.2 aminoacylation ribozyme variant]
biotinyl-Leu-oxazolone
  self-aminoacylation: 6.67
biotinyl-Val-oxazolone
  self-aminoacylation: 3.89
biotinyl-Ile-oxazolone
  self-aminoacylation: 3.22
biotinyl-Phe-oxazolone
  self-aminoacylation: 35.5
biotinyl-Trp-oxazolone
  self-aminoacylation: 5.85
biotinyl-Met-oxazolone
  self-aminoacylation: 5.45

## AUUCACCCAUGUCAUCGGGUG [Fam2.2 aminoacylation ribozyme variant]
biotinyl-Leu-oxazolone
  self-aminoacylation: 7.33
biotinyl-Val-oxazolone
  self-aminoacylation: 3.15
biotinyl-Ile-oxazolone
  self-aminoacylation: 3.72
biotinyl-Phe-oxazolone
  self-aminoacylation: 46.4
biotinyl-Trp-oxazolone
  self-aminoacylation: 5.22
biotinyl-Met-oxazolone
  self-aminoacylation: 6.58

## AUUCACCGAGGUCACCGGGUG [Fam2.2 aminoacylation ribozyme variant]
biotinyl-Leu-oxazolone
  self-aminoacylation: 10.8
biotinyl-Val-oxazolone
  self-aminoacylation: 5.88
biotinyl-Ile-oxazolone
  self-aminoacylation: 6.91
biotinyl-Phe-oxazolone
  self-aminoacylation: 74.9
biotinyl-Trp-oxazolone
  self-aminoacylation: 8.69
biotinyl-Met-oxazolone
  self-aminoacylation: 9.61

## AUUCACCGAGGUCAUCGCGUG [Fam2.2 aminoacylation ribozyme variant]
biotinyl-Leu-oxazolone
  self-aminoacylation: 19.1
biotinyl-Val-oxazolone
  self-aminoacylation: 9.71
biotinyl-Ile-oxazolone
  self-aminoacylation: 7.64
biotinyl-Phe-oxazolone
  self-aminoacylation: 117
biotinyl-Trp-oxazolone
  self-aminoacylation: 14.8
biotinyl-Met-oxazolone
  self-aminoacylation: 16

## AUUCACCGAGGUCAUCGGGGG [Fam2.2 aminoacylation ribozyme variant]
biotinyl-Leu-oxazolone
  self-aminoacylation: 2.65
biotinyl-Val-oxazolone
  self-aminoacylation: 2.71
biotinyl-Ile-oxazolone
  self-aminoacylation: 2.59
biotinyl-Phe-oxazolone
  self-aminoacylation: 7.01
biotinyl-Trp-oxazolone
  self-aminoacylation: 3.16
biotinyl-Met-oxazolone
  self-aminoacylation: 2.95

## AUUCACCGAGGUCAUCUGGUG [Fam2.2 aminoacylation ribozyme variant]
biotinyl-Leu-oxazolone
  self-aminoacylation: 5.72
biotinyl-Val-oxazolone
  self-aminoacylation: 2.69
biotinyl-Ile-oxazolone
  self-aminoacylation: 2.39
biotinyl-Phe-oxazolone
  self-aminoacylation: 34.6
biotinyl-Trp-oxazolone
  self-aminoacylation: 3.61
biotinyl-Met-oxazolone
  self-aminoacylation: 4.31

## AUUCACCGAGGUCAUGGGGUG [Fam2.2 aminoacylation ribozyme variant]
biotinyl-Leu-oxazolone
  self-aminoacylation: 14.7
biotinyl-Val-oxazolone
  self-aminoacylation: 6.55
biotinyl-Ile-oxazolone
  self-aminoacylation: 6.15
biotinyl-Phe-oxazolone
  self-aminoacylation: 86.3
biotinyl-Trp-oxazolone
  self-aminoacylation: 11.4
biotinyl-Met-oxazolone
  self-aminoacylation: 11.4

## AUUCACCGCGGUCAUCGGGUG [Fam2.2 aminoacylation ribozyme variant]
biotinyl-Leu-oxazolone
  self-aminoacylation: 8.56
biotinyl-Val-oxazolone
  self-aminoacylation: 5.04
biotinyl-Ile-oxazolone
  self-aminoacylation: 4.65
biotinyl-Phe-oxazolone
  self-aminoacylation: 59.7
biotinyl-Trp-oxazolone
  self-aminoacylation: 7.69
biotinyl-Met-oxazolone
  self-aminoacylation: 7.49

## AUUCACCUAAGUCAGCGGGUG [Fam2.2 aminoacylation ribozyme variant]
biotinyl-Leu-oxazolone
  self-aminoacylation: 5.01
biotinyl-Val-oxazolone
  self-aminoacylation: 2.88
biotinyl-Ile-oxazolone
  self-aminoacylation: 3.01
biotinyl-Phe-oxazolone
  self-aminoacylation: 25
biotinyl-Trp-oxazolone
  self-aminoacylation: 2.8
biotinyl-Met-oxazolone
  self-aminoacylation: 3.78
